From paper PMC5610937 (Journal of molecular biology, 2017) come the findings set out here.

Assay [1] addresses human ROR1 ectopically and stably expressed on mouse pre-B cell line 63-12 (Homo sapiens (Human)., UniProt Q01973). The assay can be described thus: flow cytometry on cells. (A flow cytometer gives signals particle by particle.)
In assay [2] the target is mouse ROR2 extracellular domains displayed on HEK293F cells (Mus musculus (Mouse)., UniProt Q9Z138). The assay can be described thus: flow cytometry on cells.
Chain of mouse ROR2 extracellular domains displayed on HEK293F cells (Q9Z138 34-403): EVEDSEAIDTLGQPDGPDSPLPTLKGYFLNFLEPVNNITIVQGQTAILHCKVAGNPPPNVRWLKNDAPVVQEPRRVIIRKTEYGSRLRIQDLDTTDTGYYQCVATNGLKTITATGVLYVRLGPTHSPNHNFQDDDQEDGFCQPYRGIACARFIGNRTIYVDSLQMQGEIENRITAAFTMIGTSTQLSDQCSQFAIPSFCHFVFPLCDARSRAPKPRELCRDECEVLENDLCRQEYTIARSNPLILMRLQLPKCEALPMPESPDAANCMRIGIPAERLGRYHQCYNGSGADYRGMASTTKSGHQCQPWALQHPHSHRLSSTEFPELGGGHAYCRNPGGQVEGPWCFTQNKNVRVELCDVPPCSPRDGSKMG
A further assay addresses Fc-hROR2 protein (Homo sapiens (Human)., UniProt Q01974). The assay can be described thus: SPR.
In assay [3] the target is human ROR2 on the Retrogenix HEK293 cell microarray (Homo sapiens (Human)., UniProt Q01974). The assay can be described thus: Retrogenix cell microarray.

The Kd is a measure of binding affinity in units of concentration. Lower therefore signals higher affinity.

B1: chimeric rabbit/human anti-human ROR2 Fab ERR2-302 (Fab, V domains shown)
VH: QKQLVESGGGLVKPGGSLTLTCTVSGFSLSSYAIGWVRQAPGNGLEWIGIINSYGSTYYASWAKSRSTITRNTNLNTVTLKMTSLTAADTATYFCARSPYGYVSAWGYHRLDLWGQGTLVTISS
VL: SYELTQLPSVSVSLGQTARITCGGASIGSKVVHWYQQKPGLAPGLLIYDDDERPSGVPDRFSGSNSGDTATLTISGAQAGDEAEYYCQLWDGSDVVFGGGTQLTVT
For B1, the binding result is listed as “no binding” in assay [1] and “binds” in assay [2]. Further, binding in the assay with Fc-hROR2 protein was characterised by a dissociation constant (Kd) of 0.0525 µM.

B2: XBR1-402 in chimeric rabbit/human IgG1 format (antibody, V domains shown)
VH: QEQQKESGGGLFKPTDTLTLTCTASGFDISSYYMSWVRQAPGNGLEWIGAIGISGNAYYASWAKSRSTITRNTNLNTVTLKMTSLTAADTATYFCARDHPTYGMDLWGPGTLVTVSS
VL: SYELTQLPSVSVSLGQTARITCEGNNIGSKAVHWYQQKPGLAPGLLIYDDDERPSGVPDRFSGSNSGDTATLTISGAQAGDEADYYCQVWDSSAYVFGGGTQLTVT
As for B2, the binding result in assay [3] is given as “no binding (tested: 2 μg/mL)”.

B3: chimeric rabbit/human anti-human ROR2 Fab ERR2-TOP35 (Fab, V domains shown)
VH: QSVKESEGGLFKPMDTLTLTCTVSGFSLNTYGVSWVRQAPGNGLEWIGAVGSSGATNYASWAKSRSTITRNTNENTVTLKMTSLTAADTATYFCARDGYYSSGWGPYFSIWGPGTLVTVSS
VL: SFVLTQPASVQVNLGQTVSLTCTAETLRSSYASWYQQKPGQAPVLLIYRDTSRPSGVPDRFSGSSSGNTATLTISGAQAGDEADYYCATSDGSGSRYYVFGGGTQLTVT
With B3, the binding result is listed as “no binding” in assay [1] and “binds” in assay [2]. In addition, the Kd in the assay with Fc-hROR2 protein was found to be 0.0433 µM.
